Assay results published in article PMC5389851.

Molecular target: HCMV glycoprotein gO (virion, strain TB40) (human cytomegalovirus strain TB40 (endogenous in virions))

In the case of “recombinant human PDGFR-α-Fc fusion protein (from UniProt P16234)”, the infection of HFF with wt TB40-luc virus pre-incubated with PDGFR-α-Fc (one hour at 4°C; luciferase assay), residual infection; blocks gH/gL/gO of virions with PDGFR-α on HFF is reported as 0.5%.
